According to patent US20150110788A1 (GALAXY BIOTECH, published 2015):

Assays:
[1] = target: T1, FGF2 (UniProt P09038 143-288, limits assumed); assay: ELISA: FGF2 captured on heparin-coated plate, detected with HRP-goat-anti-human-IgG-Fc
T1 construct: also called basic FGF; basic fibroblast growth factor
Method: (§1) Heparin (50 μg/ml) was bound to ELISA plates overnight and used to capture either VEGF or FGF2 (0.2 μg/ml) overnight, followed by 2% BSA for blocking.

[2] = target: T2, VEGF (UniProt P15692-4 27-191, limits assumed); assay: ELISA: VEGF captured on heparin-coated plate, detected with HRP-goat-anti-human-IgG-Fc
T2 construct: also called vascular endothelial growth factor; VEGF-A
T2 sequence (P15692 other isoform, or with tags, fused parts or gaps limits assumed): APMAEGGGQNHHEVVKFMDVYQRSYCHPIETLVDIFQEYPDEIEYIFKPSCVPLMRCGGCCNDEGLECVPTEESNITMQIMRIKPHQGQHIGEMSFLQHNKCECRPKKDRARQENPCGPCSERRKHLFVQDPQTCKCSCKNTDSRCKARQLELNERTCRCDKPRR
Method: as §1

[3] = target: T3, Flag-FGF2 (UniProt P09038 135-288, limits assumed); assay: bridging ELISA: VEGF captured on heparin-coated plate, antibody, then Flag-FGF2 and HRP-anti-Flag M2; signal needs binding to both VEGF and Flag-FGF2
T3 construct: Soluble detection reagent in the bridging ELISA; also called Flag peptide linked to FGF2; not shown: Flag peptide
T3 sequence (P09038 135-288 limits assumed): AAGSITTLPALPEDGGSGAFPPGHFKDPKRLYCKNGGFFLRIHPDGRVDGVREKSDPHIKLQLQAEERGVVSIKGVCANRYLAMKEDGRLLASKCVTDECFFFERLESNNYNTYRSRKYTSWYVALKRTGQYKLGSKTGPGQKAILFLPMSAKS
Method: (§2) Heparin (50 μg/ml) was bound to an ELISA plate overnight and used to capture VEGF (0.2 μg/ml) overnight, followed by 2% BSA for blocking. […] In principle, this assay should only detect bispecific antibody, because any detectable antibody must bind both to the VEGF on the plate in order to be captured and to Flag-FGF2 in solution in order to be detected.

[4] = target: T1, FGF2; assay: ELISA binding curves, FIG. 6B
Method: as §1

[5] = target: T2, VEGF; assay: bridging ELISA: VEGF captured on heparin-coated plate, antibody, then Flag-FGF2 and HRP-anti-Flag M2; signal needs binding to both VEGF and Flag-FGF2
Method: as §2

T1 sequence (P09038 143-288 limits assumed): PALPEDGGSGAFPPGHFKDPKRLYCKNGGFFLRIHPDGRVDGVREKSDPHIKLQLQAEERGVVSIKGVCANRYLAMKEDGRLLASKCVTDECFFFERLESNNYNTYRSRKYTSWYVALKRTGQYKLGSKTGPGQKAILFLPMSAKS

B1: X-Ava/F2 (bispecific antibody, human IgG1, kappa)
light 1: DIQMTQSPSSLSASVGDRVTITCKASQSVSSDVGWYQQKPGKAPKLLIYSGSNRYSGVPSRFSGSGSGTDFTLTISSLQPEDFATYYCQQDYYSPWTFGQGTKVEIKRTVAAPSVFIFPPSDEQLKSGTASVVCLLNNFYPREAKVQWKVDNALQSGNSQESVTEQDSKDSTYSLSSTLTLSKADYEKHKVYACEVTHQGLSSPVTKSFNRGEC
heavy 1: not shown
light 2: DIQMTQSPSSLSASVGDRVTITCSASQDISNYLNWYQQKPGKAPKVLIYFTSSLHSGVPSRFSGSGSGTDFTLTISSLQPEDFATYYCQQYSTVPWTFGQGTKVEIKSSASTKGPSVFPLAPSSKSTSGGTAALGCLVKDYFPEPVTVSWNSGALTSGVHTFPAVLQSSGLYSLSSVVTVPSSSLGTQTYICNVNHKPSNTKVDKRVEPKSC
heavy 2: not shown
notes: also called bispecific antibody X-Ava/F2; X-Ava/F2 mAb
[1]
  fold difference of EC50 against HuGAL-F2: ≤ 4 fold
[2]
  fold difference of EC50 against Avastin®: ≤ 2 fold

B2: Avastin® (bevacizumab) (antibody, V domains shown)
VH: EVQLVESGGGLVQPGGSLRLSCAASGYTFTNYGMNWVRQAPGKGLEWVGWINTYTGEPTYAADFKRRFTFSLDTSKSTAYLQMNSLRAEDTAVYYCAKYPHYYGSSHWYFDVWGQGTLVTVSS
VL: DIQMTQSPSSLSASVGDRVTITCSASQDISNYLNWYQQKPGKAPKVLIYFTSSLHSGVPSRFSGSGSGTDFTLTISSLQPEDFATYYCQQYSTVPWTFGQGTKVEIKR
notes: Humanized anti-VEGF mAb, bivalent; also called Fab-12; F(ab)-12
[3]
  binding result: no binding (tested: 1 µg/ml)

B3: HuGAL-F2 (antibody, V domains shown)
VH: EVQLVQSGAEVKKPGSSVKVSCKASGYTFTNYVINWVRQAPGQGLEWIGYNDPYNDVSKYNEKFKGRATITSDKSTSTAYMELSSLRSEDTAVYYCAKEGGGKYVYAMDSWGQGTTVTVSS
VL: DIQMTQSPSSLSASVGDRVTITCKASQSVSSDVGWYQQKPGKAPKLLIYSGSNRYSGVPSRFSGSGSGTDFTLTISSLQPEDFATYYCQQDYYSPWTFGQGTKVEIK
notes: also called humanized GAL-F2
[4]
  binding result: binds
[5]
  binding result: no binding (tested: 1 µg/ml)
